Data: PMC5916030

Experiments:
[1] = target: anthrax lethal factor (LF) (Bacillus anthracis, UniProt P15917 34-809); experiment: […]) immobilized in 20 mM HEPES pH 7.4, […]
Target sequence in this assay (P15917 34-809): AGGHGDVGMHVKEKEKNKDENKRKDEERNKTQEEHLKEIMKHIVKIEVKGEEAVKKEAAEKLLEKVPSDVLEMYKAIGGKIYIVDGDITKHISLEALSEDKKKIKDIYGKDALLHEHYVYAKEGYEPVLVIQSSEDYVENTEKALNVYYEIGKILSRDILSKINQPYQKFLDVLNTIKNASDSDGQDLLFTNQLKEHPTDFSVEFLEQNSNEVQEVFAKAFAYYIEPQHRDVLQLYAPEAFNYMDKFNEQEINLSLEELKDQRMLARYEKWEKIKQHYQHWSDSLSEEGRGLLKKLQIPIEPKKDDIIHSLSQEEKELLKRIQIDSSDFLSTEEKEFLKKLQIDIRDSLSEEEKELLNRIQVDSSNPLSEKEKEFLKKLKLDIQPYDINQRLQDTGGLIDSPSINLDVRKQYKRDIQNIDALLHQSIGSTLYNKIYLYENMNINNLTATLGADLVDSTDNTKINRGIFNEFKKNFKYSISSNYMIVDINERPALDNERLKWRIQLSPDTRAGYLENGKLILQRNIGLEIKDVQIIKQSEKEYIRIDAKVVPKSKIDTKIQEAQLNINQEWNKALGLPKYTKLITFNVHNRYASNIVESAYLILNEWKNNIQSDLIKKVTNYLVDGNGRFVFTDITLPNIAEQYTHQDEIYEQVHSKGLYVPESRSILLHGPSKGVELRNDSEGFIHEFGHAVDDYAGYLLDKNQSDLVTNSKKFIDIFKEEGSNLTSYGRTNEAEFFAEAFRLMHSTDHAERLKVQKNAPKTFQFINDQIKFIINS

[2] = target: anthrax lethal factor (LF) (Bacillus anthracis, UniProt P15917 34-809); experiment: aptamer ELISA
Target sequence in this assay (P15917 34-809): as above

B1: ML7 (ssDNA)
DNA: GGAGAGAGGGAGACGCGCAACCTCGACCCGT
binding result [1]: no binding

B2: scramble 30-mer (ssDNA)
DNA: CGCACTGAAGTGGGATACCGCCTAAACGGA
binding result [2]: no binding

B3: ML6 (ssDNA)
DNA: GGACCAGCCGCCGCGCCTTGACCGGGGGTA
binding result [1]: no binding
